Measurements published in paper PMC9482650, “Quantitative fragmentomics allow affinity mapping of interactomes” (Nature Communications, 2022).

Legend:
Assay in all cases: holdup assay
Design in all cases: key: below the threshold = too weak to quantify, mostly under pKd 3.1 to 4
[1] = molecular target: MAGI2_4, Q86UL8
[2] = molecular target: DLG1_2, Q12959
[3] = molecular target: DLG4_1, P78352
[4] = molecular target: Inadl_6, Q8NI35
[5] = molecular target: T1, SNTB1, Q13884
T1 sequence (Q13884 107-205, limits assumed, looked up): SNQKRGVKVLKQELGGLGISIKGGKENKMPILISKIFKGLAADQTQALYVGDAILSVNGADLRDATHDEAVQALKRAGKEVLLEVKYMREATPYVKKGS

[6] = molecular target: MAGI2_5, Q86UL8
[7] = molecular target: T2, ARHGAP21, Q5T5U3
T2 sequence (Q5T5U3 45-169, limits assumed, looked up): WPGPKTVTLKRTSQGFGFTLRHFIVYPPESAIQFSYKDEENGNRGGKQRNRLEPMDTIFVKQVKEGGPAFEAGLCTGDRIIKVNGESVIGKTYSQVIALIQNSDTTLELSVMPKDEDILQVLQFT

[8] = molecular target: DLG4_3, P78352
[9] = molecular target: GIPC2, Q8TF65
[10] = molecular target: Inadl_10, Q8NI35
[11] = molecular target: MAST2, Q6P0Q8
[12] = molecular target: DLG2_3, Q15700
[13] = molecular target: LAP2, Q96RT1
[14] = molecular target: GORASP2, Q9H8Y8
[15] = molecular target: PDLIM1, O00151
[16] = molecular target: HTRA1, Q92743
[17] = molecular target: GRASP, Q7Z6J2
[18] = molecular target: T3, SHANK1, Q9Y566
T3 sequence (Q9Y566 658-767, limits assumed, looked up): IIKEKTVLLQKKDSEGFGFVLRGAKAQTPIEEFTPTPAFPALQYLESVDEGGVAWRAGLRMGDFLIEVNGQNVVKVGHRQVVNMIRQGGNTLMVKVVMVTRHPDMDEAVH

[19] = molecular target: LNX1_3, Q8TBB1
[20] = molecular target: MAST1, Q9Y2H9
[21] = molecular target: GRIP2_5, Q9C0E4
[22] = molecular target: GRID2IP_2, A4D2P6
[23] = molecular target: FRMPD4, Q14CM0
[24] = molecular target: IL16_4, Q14005
[25] = molecular target: DLG4_2, P78352
[26] = molecular target: T4, RADIL, Q96JH8
T4 sequence (Q96JH8 971-1071, limits assumed, looked up): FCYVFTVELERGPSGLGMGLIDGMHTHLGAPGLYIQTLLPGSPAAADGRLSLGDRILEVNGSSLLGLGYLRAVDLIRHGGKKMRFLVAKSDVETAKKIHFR

[27] = molecular target: Inadl_1, Q8NI35
[28] = molecular target: IL16_1, Q14005
[29] = molecular target: T5, PDZD2_2, O15018
T5 sequence (O15018 329-429, limits assumed, looked up): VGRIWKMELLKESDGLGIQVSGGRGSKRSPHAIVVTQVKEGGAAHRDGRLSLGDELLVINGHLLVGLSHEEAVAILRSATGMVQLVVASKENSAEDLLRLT

[30] = molecular target: LNX1_2, Q8TBB1
[31] = molecular target: T6, APBA2_2, Q99767
T6 sequence (Q99767 654-744, limits assumed, looked up): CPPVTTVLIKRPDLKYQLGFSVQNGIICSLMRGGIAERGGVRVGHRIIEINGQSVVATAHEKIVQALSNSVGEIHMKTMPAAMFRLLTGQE

[32] = molecular target: HTRA2, O43464
[33] = molecular target: MAGI3_2, Q5TCQ9
[34] = plain residues with an end cap or a label only (N-terminal biotin on a linker: ahx)
[35] = plain residues with an end cap or a label only (N-terminal biotin on a linker: ado-ado)

LAP2, Q96RT1, sequence (Q96RT1 other isoform, or with tags, fused parts or gaps): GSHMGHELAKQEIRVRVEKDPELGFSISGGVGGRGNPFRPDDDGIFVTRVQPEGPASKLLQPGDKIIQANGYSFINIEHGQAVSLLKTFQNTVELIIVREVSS
LNX1_3, Q8TBB1, sequence (Q8TBB1 500-596): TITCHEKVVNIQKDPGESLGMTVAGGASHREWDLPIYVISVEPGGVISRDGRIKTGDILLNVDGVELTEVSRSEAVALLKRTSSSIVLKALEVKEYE
PDLIM1, O00151, sequence (O00151 1-87): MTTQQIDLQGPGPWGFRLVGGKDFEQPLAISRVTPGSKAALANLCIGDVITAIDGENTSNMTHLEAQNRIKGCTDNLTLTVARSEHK
MAGI2_5, Q86UL8, sequence (Q86UL8 915-1017): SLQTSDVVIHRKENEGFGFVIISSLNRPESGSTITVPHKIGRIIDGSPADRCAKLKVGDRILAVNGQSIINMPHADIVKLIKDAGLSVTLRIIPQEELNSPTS
Inadl_6, Q8NI35, sequence (Q8NI35 1058-1167): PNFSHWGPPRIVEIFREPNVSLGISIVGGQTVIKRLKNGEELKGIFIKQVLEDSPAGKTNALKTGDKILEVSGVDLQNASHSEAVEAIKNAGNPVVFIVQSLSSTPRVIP
LNX1_2, Q8TBB1, sequence (Q8TBB1 371-470): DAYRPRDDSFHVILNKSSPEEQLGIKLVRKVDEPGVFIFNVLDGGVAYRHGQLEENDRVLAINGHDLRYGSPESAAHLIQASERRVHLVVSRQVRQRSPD
DLG1_2, Q12959, sequence (Q12959 314-412): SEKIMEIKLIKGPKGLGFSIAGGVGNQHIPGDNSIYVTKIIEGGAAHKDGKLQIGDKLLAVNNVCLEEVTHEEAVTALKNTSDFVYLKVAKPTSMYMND
DLG4_1, P78352, sequence (P78352 62-152): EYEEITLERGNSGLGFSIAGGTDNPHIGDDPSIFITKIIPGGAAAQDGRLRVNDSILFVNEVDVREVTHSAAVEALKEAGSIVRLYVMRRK
MAGI3_2, Q5TCQ9, sequence (Q5TCQ9 398-503): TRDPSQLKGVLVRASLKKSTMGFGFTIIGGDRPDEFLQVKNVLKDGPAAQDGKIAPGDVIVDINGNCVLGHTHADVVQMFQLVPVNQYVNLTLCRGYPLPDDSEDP
Inadl_10, Q8NI35, sequence (Q8NI35 1673-1763): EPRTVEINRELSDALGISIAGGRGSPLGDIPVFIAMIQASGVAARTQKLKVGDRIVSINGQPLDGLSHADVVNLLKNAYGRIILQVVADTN
DLG4_3, P78352, sequence (P78352 306-403): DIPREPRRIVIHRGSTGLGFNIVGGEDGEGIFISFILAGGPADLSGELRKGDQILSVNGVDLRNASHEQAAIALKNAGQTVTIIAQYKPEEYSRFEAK
MAST2, Q6P0Q8, sequence (Q6P0Q8 1099-1202): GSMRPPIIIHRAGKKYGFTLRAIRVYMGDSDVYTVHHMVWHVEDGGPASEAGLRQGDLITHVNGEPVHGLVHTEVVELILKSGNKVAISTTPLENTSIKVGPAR
DLG4_2, P78352, sequence (P78352 155-259): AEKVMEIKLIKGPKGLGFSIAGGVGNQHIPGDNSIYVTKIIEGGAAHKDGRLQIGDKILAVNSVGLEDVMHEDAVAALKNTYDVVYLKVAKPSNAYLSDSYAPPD
HTRA2, O43464, sequence (O43464 355-458): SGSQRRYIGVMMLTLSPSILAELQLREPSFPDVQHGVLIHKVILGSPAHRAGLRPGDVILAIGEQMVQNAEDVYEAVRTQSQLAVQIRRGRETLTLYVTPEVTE
GIPC2, Q8TF65, sequence (Q8TF65 112-203): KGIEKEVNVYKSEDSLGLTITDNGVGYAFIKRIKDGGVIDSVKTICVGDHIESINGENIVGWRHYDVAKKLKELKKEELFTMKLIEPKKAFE
IL16_1, Q14005, sequence (Q14005 210-306): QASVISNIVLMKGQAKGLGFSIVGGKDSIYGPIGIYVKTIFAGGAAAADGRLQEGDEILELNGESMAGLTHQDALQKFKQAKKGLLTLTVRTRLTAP
HTRA1, Q92743, sequence (Q92743 360-477): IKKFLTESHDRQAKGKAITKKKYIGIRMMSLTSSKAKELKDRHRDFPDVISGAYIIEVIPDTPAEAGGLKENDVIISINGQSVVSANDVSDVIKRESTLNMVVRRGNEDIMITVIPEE
GRIP2_5, Q9C0E4, sequence (Q9C0E4 544-642): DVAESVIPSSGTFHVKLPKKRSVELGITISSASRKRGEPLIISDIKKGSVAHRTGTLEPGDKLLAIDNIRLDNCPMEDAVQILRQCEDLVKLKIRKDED
IL16_4, Q14005, sequence (Q14005 1229-1329): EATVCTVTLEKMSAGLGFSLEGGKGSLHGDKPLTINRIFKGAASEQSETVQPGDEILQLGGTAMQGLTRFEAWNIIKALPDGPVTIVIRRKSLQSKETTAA
Inadl_1, Q8NI35, sequence (Q8NI35 113-229): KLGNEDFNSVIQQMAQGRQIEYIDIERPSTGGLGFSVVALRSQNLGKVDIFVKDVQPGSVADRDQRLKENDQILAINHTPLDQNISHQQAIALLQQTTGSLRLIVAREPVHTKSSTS
MAGI2_4, Q86UL8, sequence (Q86UL8 772-865): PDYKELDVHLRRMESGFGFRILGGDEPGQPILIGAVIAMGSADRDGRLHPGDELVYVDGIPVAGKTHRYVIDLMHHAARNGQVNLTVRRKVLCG
GRID2IP_2, A4D2P6, sequence (A4D2P6 272-370): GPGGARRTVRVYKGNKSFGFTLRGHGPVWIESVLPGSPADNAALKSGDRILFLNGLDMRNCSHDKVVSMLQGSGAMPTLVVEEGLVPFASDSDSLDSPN
FRMPD4, Q14CM0, sequence (Q14CM0 67-160): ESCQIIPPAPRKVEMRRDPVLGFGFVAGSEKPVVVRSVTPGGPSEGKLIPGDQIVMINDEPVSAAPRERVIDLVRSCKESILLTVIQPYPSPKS
MAST1, Q9Y2H9, sequence (Q9Y2H9 962-1065): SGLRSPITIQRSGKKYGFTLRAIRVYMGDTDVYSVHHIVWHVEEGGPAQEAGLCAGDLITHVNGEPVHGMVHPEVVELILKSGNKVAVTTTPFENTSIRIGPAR
GRASP, Q7Z6J2, sequence (Q7Z6J2 96-193): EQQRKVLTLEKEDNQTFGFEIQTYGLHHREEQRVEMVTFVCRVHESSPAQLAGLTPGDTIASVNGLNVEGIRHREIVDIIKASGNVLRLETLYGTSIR

Binder: TESNLQTSSC [CGN, Q9P2M7]
- pKd [1, 34]: 3.53
- pKd [2, 34]: below the threshold
- pKd [3, 34]: below the threshold
- pKd [4, 34]: below the threshold
- pKd [5, 34]: below the threshold
- pKd [6, 34]: below the threshold
- pKd [7, 34]: 3.51
- pKd [8, 34]: below the threshold
- pKd [9, 34]: 3.78
- pKd [10, 34]: 3.6
- pKd [11, 34]: below the threshold
- pKd [12, 34]: below the threshold
- pKd [13, 34]: below the threshold
- pKd [14, 34]: below the threshold
- pKd [15, 34]: below the threshold
- pKd [16, 34]: below the threshold
- pKd [17, 34]: 3.95
- pKd [18, 34]: below the threshold
- pKd [19, 34]: below the threshold
- pKd [20, 34]: below the threshold
- pKd [21, 34]: below the threshold
- pKd [22, 34]: 3.8
- pKd [23, 34]: below the threshold
- pKd [24, 34]: below the threshold
- pKd [25, 34]: below the threshold
- pKd [26, 34]: below the threshold
- pKd [27, 34]: below the threshold
- pKd [28, 34]: below the threshold
- pKd [29, 34]: 4.1
- pKd [30, 34]: below the threshold
- pKd [31, 34]: below the threshold
- pKd [32, 34]: below the threshold
- pKd [33, 34]: below the threshold

Binder: RSSGGDDFWF [KCNV1, Q6PIU1]
- pKd [1, 35]: 4.13
- pKd [2, 35]: 3.67
- pKd [3, 35]: below the threshold
- pKd [4, 35]: below the threshold
- pKd [5, 35]: below the threshold
- pKd [6, 35]: below the threshold
- pKd [7, 35]: 4.8
- pKd [8, 35]: below the threshold
- pKd [9, 35]: below the threshold
- pKd [10, 35]: below the threshold
- pKd [11, 35]: 4.61
- pKd [12, 35]: 3.6
- pKd [13, 35]: below the threshold
- pKd [14, 35]: 4.21
- pKd [15, 35]: below the threshold
- pKd [16, 35]: 4.61
- pKd [17, 35]: below the threshold
- pKd [18, 35]: below the threshold
- pKd [19, 35]: below the threshold
- pKd [20, 35]: 4.01
- pKd [21, 35]: below the threshold
- pKd [22, 35]: below the threshold
- pKd [23, 35]: 4.67
- pKd [24, 35]: below the threshold
- pKd [25, 35]: below the threshold
- pKd [26, 35]: below the threshold
- pKd [27, 35]: below the threshold
- pKd [28, 35]: below the threshold
- pKd [29, 35]: 4.37
- pKd [30, 35]: below the threshold
- pKd [31, 35]: below the threshold
- pKd [32, 35]: below the threshold
- pKd [33, 35]: below the threshold

Binder: GTGYDRKDYV [CLDN3, O15551]
- pKd [1, 35]: 3.85
- pKd [2, 35]: below the threshold
- pKd [3, 35]: below the threshold
- pKd [4, 35]: below the threshold
- pKd [5, 35]: below the threshold
- pKd [6, 35]: below the threshold
- pKd [7, 35]: 3.83
- pKd [8, 35]: below the threshold
- pKd [9, 35]: below the threshold
- pKd [10, 35]: below the threshold
- pKd [11, 35]: below the threshold
- pKd [12, 35]: below the threshold
- pKd [13, 35]: below the threshold
- pKd [14, 35]: 3.57
- pKd [15, 35]: below the threshold
- pKd [16, 35]: 4.14
- pKd [17, 35]: below the threshold
- pKd [18, 35]: below the threshold
- pKd [19, 35]: 3.49
- pKd [20, 35]: 4.03
- pKd [21, 35]: below the threshold
- pKd [22, 35]: 3.68
- pKd [23, 35]: 3.56
- pKd [24, 35]: 3.73
- pKd [25, 35]: 3.63
- pKd [26, 35]: 4.12
- pKd [27, 35]: below the threshold
- pKd [28, 35]: below the threshold
- pKd [29, 35]: 4.95
- pKd [30, 35]: below the threshold
- pKd [31, 35]: below the threshold
- pKd [32, 35]: below the threshold
- pKd [33, 35]: below the threshold

Binder: RDPPAEWTRV [PTPN18, Q99952]
- pKd [1, 35]: 3.48
- pKd [2, 35]: 4.48
- pKd [3, 35]: 4.07
- pKd [4, 35]: below the threshold
- pKd [5, 35]: 4.37
- pKd [6, 35]: 4.72
- pKd [7, 35]: 3.95
- pKd [8, 35]: below the threshold
- pKd [9, 35]: below the threshold
- pKd [10, 35]: 3.61
- pKd [11, 35]: 5.62
- pKd [12, 35]: 3.54
- pKd [13, 35]: 4.02
- pKd [14, 35]: 4.11
- pKd [15, 35]: below the threshold
- pKd [16, 35]: 4.4
- pKd [17, 35]: 4.66
- pKd [18, 35]: 5.05
- pKd [19, 35]: 3.68
- pKd [20, 35]: 4.97
- pKd [21, 35]: below the threshold
- pKd [22, 35]: 4.57
- pKd [23, 35]: 4.07
- pKd [24, 35]: 3.6
- pKd [25, 35]: 4.26
- pKd [26, 35]: 4
- pKd [27, 35]: below the threshold
- pKd [28, 35]: below the threshold
- pKd [29, 35]: 4.18
- pKd [30, 35]: 3.47
- pKd [31, 35]: below the threshold
- pKd [32, 35]: below the threshold
- pKd [33, 35]: 4.27

Binder: VLYPREGTEV [FOXI1, Q12951]
- pKd [1, 35]: 4.98
- pKd [2, 35]: 4.84
- pKd [3, 35]: 4.48
- pKd [4, 35]: below the threshold
- pKd [5, 35]: 3.97
- pKd [6, 35]: 4.09
- pKd [7, 35]: 4
- pKd [8, 35]: 3.57
- pKd [9, 35]: 3.49
- pKd [10, 35]: below the threshold
- pKd [11, 35]: 5.27
- pKd [12, 35]: 3.9
- pKd [13, 35]: 3.52
- pKd [14, 35]: below the threshold
- pKd [15, 35]: 3.81
- pKd [16, 35]: 4.64
- pKd [17, 35]: 4.31
- pKd [18, 35]: 3.49
- pKd [19, 35]: below the threshold
- pKd [20, 35]: 4.74
- pKd [21, 35]: below the threshold
- pKd [22, 35]: 4.11
- pKd [23, 35]: 3.51
- pKd [24, 35]: below the threshold
- pKd [25, 35]: 4.62
- pKd [26, 35]: 3.74
- pKd [27, 35]: below the threshold
- pKd [28, 35]: 4
- pKd [29, 35]: 4.93
- pKd [30, 35]: 3.6
- pKd [31, 35]: below the threshold
- pKd [32, 35]: below the threshold
- pKd [33, 35]: 4.52
